Data on one molecule can be found in WO2021212049A2.

Holding throughout (settings): remark: other sources report otherwise
Test [1] concerns the target T1, untagged SARS-CoV-2 RBD expressed in E. coli BL21(DE3) and oxidatively refolded (RBDWT) (SARS-CoV-2), P0DTC2. Briefly: BLI, RBD expressed in E. coli. For orientation: BLI is a label-free optical method that tracks binding on a fibre tip over time.
The target in test [2] is bacterially derived SARS-CoV RBD (SARS-CoV), P59594. Description: BLI, bacterially derived SARS-CoV RBD.
In test [3] the target is Mammalian SARS-CoV2 RBD (residues 331-524) with C-terminal 6XHis Tag (SARS-CoV-2), P0DTC2. Description: ELISA on coated antigen, anti-human IgG-HRP. (In general: An ELISA detects its analyte on a solid surface through an enzyme-linked reagent.)
Test [4] addresses T1, untagged SARS-CoV-2 RBD expressed in E. …. Briefly: BLI, RBD expressed in E. coli, 1:1 Langmuir fit.

What is called half-life is the time in which the quantity being followed falls by half. Higher therefore signals slow decline. In general, Kd refers to the constant that tells how readily two partners part at equilibrium.

B1: mAb 2H04 (antibody)
chain 1: EVQLQQSGAELVKPGASVKMSCKASGYTFTSYWITWVKQRPGQGLEWIGDIYPGSGSTKYNEKFRSEATLTVDTSSTTAYMQLSSLTSEDSAVYYCARWDFYGSRTFDYWGQGTTLTVSS
chain 2: DIVLTQSPAILSVSPGERVSFSCRASQNIGTIIHWYQQRTNGSPRLLIKYASESVSGIPSRFSGSGSGTDFTLSINSVESEDIADYYCQQSSSWPLTFGAGTKLELK
As for B1, the figures for the half-life in test [1] and in test [2] were 76.2 s and 25.8 s, respectively. Besides, the dissociation constant (Kd) in test [2] is 1.42 µM; in test [4] it was 0.04 µM. For the same molecule, in test [3], the minimum positive concentration is under 5 µg/mL.
